Laboratory results as given in patent publication US20210347873A1 (SHANGHAI PHARMAEXPLORER, published 2021).
Where two headings read alike, the source gives them in different places. One block for each molecule: values may come before it.

Tests used:
[1] = molecular target: biotinylated hBLyS-ECD (human) (UniProt Q9Y275); experiment: ELISA on captured biotinylated hBLyS-ECD; control antibody 0.0213 nM
[2] = molecular target: biotinylated hBLyS-ECD (human) (UniProt Q9Y275); experiment: BAFF R-coated ELISA, biotinylated hBLyS-ECD bound in presence of control antibody 0.16 nM
[3] = molecular target: biotinylated hBLyS-ECD (human) (UniProt Q9Y275); experiment: ELISA on captured biotinylated hBLyS-ECD; control antibody 0.00427 nM
[4] = molecular target: biotinylated hBLyS-ECD (human) (UniProt Q9Y275); experiment: ELISA on captured biotinylated hBLyS-ECD; control antibody 0.534 nM
[5] = molecular target: biotinylated hBLyS-ECD (human) (UniProt Q9Y275); experiment: BAFF R-coated ELISA, biotinylated hBLyS-ECD bound in presence of control antibody 0.032 nM
[6] = molecular target: biotinylated hBLyS-ECD (human) (UniProt Q9Y275); experiment: BAFF R-coated ELISA, biotinylated hBLyS-ECD bound in presence of control antibody 20 nM
[7] = molecular target: biotinylated hBLyS-ECD (human) (UniProt Q9Y275); experiment: BAFF R-coated ELISA, biotinylated hBLyS-ECD bound in presence of control antibody 0.0064 nM
[8] = molecular target: extracellular domain of human BLyS protein (hBLyS-ECD), His-tagged, Ala134-Leu285 (human) (UniProt Q9Y275); experiment: cell-based or functional assay
[9] = molecular target: biotinylated hBLyS-ECD (human) (UniProt Q9Y275); experiment: BAFF R-coated ELISA, biotinylated hBLyS-ECD bound in presence of control antibody 100 nM
[10] = molecular target: biotinylated hBLyS-ECD (human) (UniProt Q9Y275); experiment: ELISA on captured biotinylated hBLyS-ECD; control antibody 2.67 nM
[11] = molecular target: biotinylated hBLyS-ECD (human) (UniProt Q9Y275); experiment: ELISA on captured biotinylated hBLyS-ECD; control antibody 0 nM (background)
[12] = molecular target: biotinylated hBLyS-ECD (human) (UniProt Q9Y275); experiment: ELISA on captured biotinylated hBLyS-ECD; control antibody 0.534 nM; remark: listed apart in the source
[13] = molecular target: biotinylated hBLyS-ECD (human) (UniProt Q9Y275); experiment: BAFF R-coated ELISA, biotinylated hBLyS-ECD bound in presence of control antibody 20 nM; remark: listed apart in the source
[14] = molecular target: biotinylated hBLyS-ECD (human) (UniProt Q9Y275); experiment: BAFF R-coated ELISA, biotinylated hBLyS-ECD bound in presence of control antibody 0.032 nM; remark: listed apart in the source
[15] = molecular target: biotinylated hBLyS-ECD (human) (UniProt Q9Y275); experiment: BAFF R-coated ELISA, biotinylated hBLyS-ECD bound in presence of control antibody 0.8 nM
[16] = molecular target: biotinylated hBLyS-ECD (human) (UniProt Q9Y275); experiment: ELISA on captured biotinylated hBLyS-ECD; control antibody 13.3 nM
[17] = molecular target: biotinylated hBLyS-ECD (human) (UniProt Q9Y275); experiment: ELISA on captured biotinylated hBLyS-ECD; control antibody 66.7 nM
[18] = molecular target: biotinylated hBLyS-ECD (human) (UniProt Q9Y275); experiment: ELISA on captured biotinylated hBLyS-ECD; control antibody 13.3 nM; remark: listed apart in the source
[19] = molecular target: biotinylated hBLyS-ECD (human) (UniProt Q9Y275); experiment: ELISA on captured biotinylated hBLyS-ECD; control antibody 66.7 nM; remark: listed apart in the source
[20] = molecular target: biotinylated hBLyS-ECD (human) (UniProt Q9Y275); experiment: BAFF R-coated ELISA, biotinylated hBLyS-ECD bound in presence of control antibody 0.8 nM; remark: listed apart in the source
[21] = molecular target: biotinylated hBLyS-ECD (human) (UniProt Q9Y275); experiment: ELISA on captured biotinylated hBLyS-ECD; control antibody 0.00427 nM; remark: listed apart in the source
[22] = molecular target: biotinylated hBLyS-ECD (human) (UniProt Q9Y275); experiment: BAFF R-coated ELISA, biotinylated hBLyS-ECD bound in presence of control antibody 4 nM
[23] = molecular target: biotinylated hBLyS-ECD (human) (UniProt Q9Y275); experiment: BAFF R-coated ELISA, biotinylated hBLyS-ECD bound in presence of control antibody 0.16 nM; remark: listed apart in the source
[24] = molecular target: biotinylated hBLyS-ECD (human) (UniProt Q9Y275); experiment: BAFF R-coated ELISA, biotinylated hBLyS-ECD bound in presence of control antibody 4 nM; remark: listed apart in the source
[25] = molecular target: His-tagged extracellular domain of human BLyS protein (hBLyS-ECD), Ala134-Leu285 (human) (UniProt Q9Y275); experiment: cell-based or functional assay
[26] = molecular target: extracellular domain of human BLyS protein (hBLyS-ECD), His-tagged, Ala134-Leu285 (human) (UniProt Q9Y275); experiment: cell-based or functional assay; remark: listed apart in the source
[27] = molecular target: hBLyS-ECD (His-tagged extracellular domain of human BLyS protein, Ala134-Leu285) (human) (UniProt Q9Y275); experiment: cell-based or functional assay
[28] = molecular target: extracellular domain of human BLyS protein (hBLyS-ECD), His-tagged, Ala134-Leu285 (human, UniProt Q9Y275 134-285); experiment: cell-based or functional assay

OD450 nm [1]: 0.0699 OD450 nm
OD450 nm [2]: 2.04 OD450 nm
OD450 nm [3]: 0.121 OD450 nm
OD450 nm [4]: 0.062 OD450 nm
OD450 nm [5]: 1.99 OD450 nm
OD450 nm [6]: 1.91 OD450 nm
OD450 nm [7]: 1.99 OD450 nm
Proportion of B lymphocytes in splenocytes (%), in vivo in mice [8]: 38.3%
OD450 nm [9]: 2.2 OD450 nm
OD450 nm [10]: 0.0652 OD450 nm
OD450 nm [11]: 0.119 OD450 nm
OD450 nm [12]: 0.141 OD450 nm
OD450 nm [13]: 2.01 OD450 nm
OD450 nm [14]: 1.84 OD450 nm
OD450 nm [15]: 1.83 OD450 nm
OD450 nm [16]: 0.103 OD450 nm
OD450 nm [17]: 0.144 OD450 nm
OD450 nm [18]: 0.072 OD450 nm
OD450 nm [19]: 0.14 OD450 nm
OD450 nm [20]: 1.85 OD450 nm
OD450 nm [21]: 0.0798 OD450 nm
OD450 nm [22]: 2.15 OD450 nm
OD450 nm [23]: 1.79 OD450 nm
OD450 nm [24]: 1.87 OD450 nm
IgA Conc. in mouse serum, mice given hBLyS-ECD and antibody (in vivo neutralisation) [25]: 387 µg/mL
Proportion of B lymphocytes in splenocytes (%), mice given hBLyS-ECD and antibody (in vivo neutralisation) [25]: 39.7%
OD450 nm (as headed), mouse B lymphocyte proliferation; control antibody 0 nM [26]: 4390
OD450 nm (as headed), mouse B lymphocyte proliferation; control antibody 0.000256 nM [26]: 4940
OD450 nm (as headed), mouse B lymphocyte proliferation; control antibody 0.00128 nM [26]: 4690
OD450 nm (as headed), mouse B lymphocyte proliferation; control antibody 0.0064 nM [26]: 5070
OD450 nm (as headed), mouse B lymphocyte proliferation; control antibody 0.032 nM [26]: 5120
OD450 nm (as headed), mouse B lymphocyte proliferation; control antibody 0.16 nM [26]: 5370
OD450 nm (as headed), mouse B lymphocyte proliferation; control antibody 0.8 nM [26]: 5040
OD450 nm (as headed), mouse B lymphocyte proliferation; control antibody 4 nM [26]: 5100
OD450 nm (as headed), mouse B lymphocyte proliferation; control antibody 20 nM [26]: 4930
OD450 nm (as headed), mouse B lymphocyte proliferation; control antibody 100 nM [26]: 4880
Proportion of B lymphocytes in splenocytes (%), in vivo in mice [26]: 51%
Molecule: hIgG Control (antibody)
mouse B lymphocyte proliferation stimulated by hBLyS-ECD (viable cell signal) at 0 nM antibody (OD450 nm (as headed)) [25]: 3570
mouse B lymphocyte proliferation stimulated by hBLyS-ECD (viable cell signal) at 0.000256 nM antibody [25]: 3970
mouse B lymphocyte proliferation stimulated by hBLyS-ECD (viable cell signal) at 0.00128 nM antibody (OD450 nm (as headed)) [25]: 3860
mouse B lymphocyte proliferation stimulated by hBLyS-ECD (viable cell signal) at 0.0064 nM antibody (OD450 nm (as headed)) [25]: 3730
mouse B lymphocyte proliferation stimulated by hBLyS-ECD (viable cell signal) at 0.032 nM antibody (OD450 nm (as headed)) [25]: 3920
mouse B lymphocyte proliferation stimulated by hBLyS-ECD (viable cell signal) at 0.16 nM antibody (OD450 nm (as headed)) [25]: 4200
mouse B lymphocyte proliferation stimulated by hBLyS-ECD (viable cell signal) at 0.8 nM antibody (OD450 nm (as headed)) [25]: 4290
mouse B lymphocyte proliferation stimulated by hBLyS-ECD (viable cell signal) at 4 nM antibody (OD450 nm (as headed)) [25]: 4430
mouse B lymphocyte proliferation stimulated by hBLyS-ECD (viable cell signal) at 20 nM antibody (OD450 nm (as headed)) [25]: 4700
mouse B lymphocyte proliferation stimulated by hBLyS-ECD (viable cell signal) at 100 nM antibody (OD450 nm (as headed)) [25]: 3720

mouse B lymphocyte proliferation (OD450 nm), antibody 0 nM [27]: 2730 OD450 nm
mouse B lymphocyte proliferation (OD450 nm), antibody 0.000256 nM [27]: 3130 OD450 nm
mouse B lymphocyte proliferation (OD450 nm), antibody 0.00128 nM [27]: 3880 OD450 nm
mouse B lymphocyte proliferation (OD450 nm), antibody 0.0064 nM [27]: 3700 OD450 nm
mouse B lymphocyte proliferation (OD450 nm), antibody 0.032 nM [27]: 4010 OD450 nm
mouse B lymphocyte proliferation (OD450 nm), antibody 0.16 nM [27]: 4020 OD450 nm
mouse B lymphocyte proliferation (OD450 nm), antibody 0.8 nM [27]: 3950 OD450 nm
mouse B lymphocyte proliferation (OD450 nm), antibody 4 nM [27]: 3100 OD450 nm
mouse B lymphocyte proliferation (OD450 nm), antibody 20 nM [27]: 2590 OD450 nm
mouse B lymphocyte proliferation (OD450 nm), antibody 100 nM [27]: 3400 OD450 nm
Molecule: mIgG Control (antibody)

Proportion of B lymphocytes in splenocytes (%), in vivo in mice [28]: 24.1%
B1: c97A3C2H4 (antibody, V domains shown)
VH: EVKLVESGGGLVQPGGSLKLSCAASGFTFSTYTMSWVRQTPEKRLEWVAYISYGGGSTSYPDTVKGRFTISRDNAKNTLYLQMSSLKSEDTAIYYCTRHVTVVENSMDYWGQGTSVTVSS
VL: DILLTQSPDILSVSPGERVSFSCRASQSIGTSIHWYQQRTNGSPRLLIKYVSESFSGTPSRFSGSGSGTAFTLTINSVESEDIADYYCQQTHSWPWTFGGGTKLEIK
notes: also called chimeric antibody c97A3C2H4
